{
  "source": "paper PMC12720421",
  "about": "“Disordered N‐termini enhance the thermostability of SGNH‐hydrolase family polyesterases” (Protein Science : A Publication of the Protein Society, 2025)",
  "molecules": {"B1": {"name": "PpEST (Ectopseudomonas oleovorans CECT 5344) (protein)", "chain": "GTLLVVGDSISAAFGLDSRQGWVALLEKRLSEEGFEHSVVNASISGDTSAGGAARLSALLAEHKPELVIIELGGNDGLRGQPPAQLQQNLASMVEQSQQAGAKVLLLGMKLPPNYGVRYTTAFAQVFTDLAEQKQVSLVPFFLEGVGGVPGMMQADGIHPAEAAQEILLDNVWPTLKPML"}, "B2": {"name": "AlinE4 (Altericroceibacterium indicum) (protein)", "chain": "SMGESRVILAFGDSLFAGYGLDKGESYPAKLETALRSHGINARIINAGVSGDTTAAGLQRIKFVLDSQPDKPELAIVELGGNDLLRGLSPAEARQNLSGILEELQRRKIPILLMGMRAPPNLGAKYQREFDGIYPYLAEKYDAKLVPFFLEAVADRPDLIQKDHVHPTARGVEELVSATSNAVAKALPAKK"}, "B3": {"name": "shRp_EST (Rhodothermus profundi) (protein)", "chain": "ITVLVLGNSLAAGYGLSPDEAFPAILQRKVDSLGWPVRILNAGLSGETSAGGLRRIDWLLRERIDVLILELGANDGLRGIDPEVTRQNLQGIIDKVRARYPEADIILAGMQLPPNLGPAYTAAFRALYPELARANNAYLIPFLLEGVGGVPELNQADGIHPTAEGQRIVAENVWRVLRPVLERRLGLA", "notes": "N-terminal extension truncated to align with AlinE4 and PpEST (borders not in main text), C-terminal 6xHis tag, E. coli, monomer"}, "B4": {"name": "shCt_EST (Chloracidobacterium thermophilum B) (protein)", "chain": "TARPRIVVLGDSLTAGFGLPREASYPTVLQKKLDAAGLNYQVINAGISGDTSAGGVERLDWSLDGDVRIVILALGANDGLRGLPLTQMEANLRTIIERARARGAQVILAGLKAPAEAGPDYGAQFEAVYRKLAQQYRLPLIPSLLEGVAGREELNQEDGIHPNARGAAIVADNVWKVLEPVARQQLAQSQSNPDAPPAAKPAGAR", "notes": "as for B3"}, "B5": {"name": "Rp_EST (Rhodothermus profundi) (protein)", "chain": "QDTSKSSASSSEGSPDTTAKTPTHAARAAQPITVLVLGNSLAAGYGLSPDEAFPAILQRKVDSLGWPVRILNAGLSGETSAGGLRRIDWLLRERIDVLILELGANDGLRGIDPEVTRQNLQGIIDKVRARYPEADIILAGMQLPPNLGPAYTAAFRALYPELARANNAYLIPFLLEGVGGVPELNQADGIHPTAEGQRIVAENVWRVLRPVLERRLGLA"}, "B6": {"name": "Ct_EST (Chloracidobacterium thermophilum B) (protein)", "chain": "GGCSRTGTEAPENLPVLAPAPTDAAPTARPRIVVLGDSLTAGFGLPREASYPTVLQKKLDAAGLNYQVINAGISGDTSAGGVERLDWSLDGDVRIVILALGANDGLRGLPLTQMEANLRTIIERARARGAQVILAGLKAPAEAGPDYGAQFEAVYRKLAQQYRLPLIPSLLEGVAGREELNQEDGIHPNARGAAIVADNVWKVLEPVARQQLAQSQSNPDAPPAAKPAGAR"}},
  "key": {"[1]": {"molecular_target": "Rp_EST from Rhodothermus profundi (Rhodothermus profundi)", "experiment": "SEC; analytical SEC on a Superdex 200 Increase 10/300 GL column, with a BioRad Gel Filtration Standard; self-association of each purified esterase"}, "[2]": {"molecular_target": "PpEST from Pseudomonas oleovorans (Pseudomonas oleovorans)", "experiment": "SEC; analytical SEC on a Superdex 200 Increase 10/300 GL column, with a BioRad Gel Filtration Standard; self-association of each purified esterase"}, "[3]": {"molecular_target": "T1, Pmt_EST (Zestomonas thermotolerans, UniProt Z9LQW2KWT1)", "T1 sequence (Z9LQW2KWT1 41-245)": "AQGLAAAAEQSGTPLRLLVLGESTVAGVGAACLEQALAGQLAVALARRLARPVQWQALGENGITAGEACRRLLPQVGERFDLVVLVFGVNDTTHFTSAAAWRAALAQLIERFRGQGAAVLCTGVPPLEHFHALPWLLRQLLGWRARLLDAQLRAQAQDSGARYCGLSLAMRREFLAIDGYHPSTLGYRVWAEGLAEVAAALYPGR", "experiment": "pNP release at […] nm, specific activity", "assay_type": "biochemical", "settings": "50 mM Tris pH 8.5, 5% methanol"}, "[4]": {"molecular_target": "T2, Ft_EST (Fontimonas thermophila, UniProt A0A1I2JG86)", "T2 construct": "gene SAMN04488120_10748", "T2 sequence (A0A1I2JG86 25-217)": "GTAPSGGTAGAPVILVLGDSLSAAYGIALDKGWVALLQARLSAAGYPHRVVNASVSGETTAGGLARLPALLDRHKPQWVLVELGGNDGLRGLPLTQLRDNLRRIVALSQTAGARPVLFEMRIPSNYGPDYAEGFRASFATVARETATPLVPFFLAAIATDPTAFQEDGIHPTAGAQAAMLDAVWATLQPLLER", "experiment": "pNP release at […] nm, specific activity", "assay_type": "biochemical", "settings": "50 mM Tris pH 8.5, 5% methanol"}, "[5]": {"system": "CCCC(=O)Oc1ccc([N+](=O)[O-])cc1", "experiment": "purified protein", "assay_type": "biochemical, Maribacter thermophilus", "settings": "50 mM Tris pH 8.0, room temperature, 5% methanol, 0.05-0.1 μM enzyme"}, "[6]": {"substrate": "CCCC(=O)Oc1ccc([N+](=O)[O-])cc1", "experiment": "purified protein", "assay_type": "biochemical, Ectopseudomonas oleovorans", "settings": "50 mM Tris pH 8.0, room temperature, 5% methanol, 0.05-0.1 μM enzyme"}, "[7]": {"substrate": "CCCC(=O)Oc1ccc([N+](=O)[O-])cc1", "experiment": "purified protein", "assay_type": "biochemical, Altericroceibacterium indicum", "settings": "50 mM Tris pH 8.0, room temperature, 5% methanol, 0.05-0.1 μM enzyme"}, "[8]": {"substrate": "CCCC(=O)Oc1ccc([N+](=O)[O-])cc1", "experiment": "purified protein", "assay_type": "biochemical, Rhodothermus profundi", "settings": "50 mM Tris pH 8.0, room temperature, 5% methanol, 0.05-0.1 μM enzyme"}, "[9]": {"substrate": "CCCC(=O)Oc1ccc([N+](=O)[O-])cc1", "experiment": "purified protein", "assay_type": "biochemical, Chloracidobacterium thermophilum", "settings": "50 mM Tris pH 8.0, room temperature, 5% methanol, 0.05-0.1 μM enzyme"}},
  "note": "Several values for one entry are separate records, joined by “and”; a condition that tells them apart may be missing. Equal values may be shown once.",
  "data": [
    {"molecule": "Rp_EST from Rhodothermus profundi (enzyme)", "values": [
      {"measurement": "stoichiometry N", "setting": "[1]", "value": "2 and 4"}
    ]},
    {"molecule": "PpEST from Pseudomonas oleovorans (enzyme)", "values": [
      {"measurement": "stoichiometry N", "setting": "[2]", "value": 2}
    ]},
    {"molecule": "CCCC(=O)Oc1ccc([N+](=O)[O-])cc1", "note": "[pNP-butyrate]", "values": [
      {"measurement": "pNP release at 410 nm, specific activity", "setting": "[3]", "value": "showed a clear preference for mid‐chain length esters, particularly pNP‐butyrate (C4)"},
      {"measurement": "pNP release at 410 nm, specific activity", "setting": "[4]", "value": "showed a clear preference for mid‐chain length esters, particularly pNP‐butyrate (C4)"}
    ]},
    {"molecule": "Mt_EST (Maribacter thermophilus)", "values": [
      {"measurement": "Km", "setting": "[5]", "value": "453 ± 81", "unit": "µM"},
      {"measurement": "kcat", "setting": "[5]", "value": "54.4 ± 4.4", "unit": "s⁻¹"},
      {"measurement": "kcat/Km", "setting": "[5]", "value": 120000, "unit": "M⁻¹ s⁻¹"}
    ]},
    {"molecule": "B1", "values": [
      {"measurement": "Km", "setting": "[6]", "value": "242 ± 49", "unit": "µM"},
      {"measurement": "kcat", "setting": "[6]", "value": "14 ± 1", "unit": "s⁻¹"},
      {"measurement": "kcat/Km", "setting": "[6]", "value": 58000, "unit": "M⁻¹ s⁻¹"}
    ]},
    {"molecule": "B2", "values": [
      {"measurement": "Km", "setting": "[7]", "value": "194 ± 55", "unit": "µM"},
      {"measurement": "kcat", "setting": "[7]", "value": "15 ± 1.4", "unit": "s⁻¹"},
      {"measurement": "kcat/Km", "setting": "[7]", "value": 77000, "unit": "M⁻¹ s⁻¹"}
    ]},
    {"molecule": "B3", "values": [
      {"measurement": "Km", "setting": "[8]", "value": "257 ± 43", "unit": "µM"},
      {"measurement": "kcat", "setting": "[8]", "value": "25 ± 1.6", "unit": "s⁻¹"},
      {"measurement": "kcat/Km", "setting": "[8]", "value": 97000, "unit": "M⁻¹ s⁻¹"}
    ]},
    {"molecule": "B4", "values": [
      {"measurement": "Km", "setting": "[9]", "value": "646 ± 139", "unit": "µM"},
      {"measurement": "kcat", "setting": "[9]", "value": "33.3 ± 3.7", "unit": "s⁻¹"},
      {"measurement": "kcat/Km", "setting": "[9]", "value": 52000, "unit": "M⁻¹ s⁻¹"}
    ]},
    {"molecule": "B5", "values": [
      {"measurement": "Km", "setting": "[8]", "value": "246 ± 72", "unit": "µM"},
      {"measurement": "kcat", "setting": "[8]", "value": "12 ± 1.3", "unit": "s⁻¹"},
      {"measurement": "kcat/Km", "setting": "[8]", "value": 49000, "unit": "M⁻¹ s⁻¹"}
    ]},
    {"molecule": "B6", "values": [
      {"measurement": "Km", "setting": "[9]", "value": "791 ± 178", "unit": "µM"},
      {"measurement": "kcat", "setting": "[9]", "value": "38.5 ± 4.8", "unit": "s⁻¹"},
      {"measurement": "kcat/Km", "setting": "[9]", "value": 49000, "unit": "M⁻¹ s⁻¹"}
    ]}
  ]
}
